Test results: KR20150077887A (dated 2015)
Each block holds one binder with its values, some of them ahead of it.

Molecular target: T1, NRS natively expressed in human cells (HeLa cell lysate) (human, UniProt O43776 1-548)
T1 construct: mature; Target of the western blot; also called human 세포에서 원래 발현된 NRS
T1 sequence (looked up): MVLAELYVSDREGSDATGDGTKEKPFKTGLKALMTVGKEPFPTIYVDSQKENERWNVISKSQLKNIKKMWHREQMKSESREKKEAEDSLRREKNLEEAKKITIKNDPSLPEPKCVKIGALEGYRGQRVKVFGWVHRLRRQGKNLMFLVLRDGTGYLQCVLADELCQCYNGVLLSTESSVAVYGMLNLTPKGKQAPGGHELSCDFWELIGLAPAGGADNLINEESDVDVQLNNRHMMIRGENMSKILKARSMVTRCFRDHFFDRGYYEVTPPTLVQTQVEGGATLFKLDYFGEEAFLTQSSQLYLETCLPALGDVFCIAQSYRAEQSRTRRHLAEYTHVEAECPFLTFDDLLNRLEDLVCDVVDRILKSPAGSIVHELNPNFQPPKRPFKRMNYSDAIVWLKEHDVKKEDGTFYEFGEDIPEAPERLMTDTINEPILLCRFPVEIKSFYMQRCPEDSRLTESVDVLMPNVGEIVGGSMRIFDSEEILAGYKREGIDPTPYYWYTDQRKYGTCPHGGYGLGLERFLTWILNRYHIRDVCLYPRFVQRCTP
Assay: western blot on HeLa cell lysate with periplasmic scFv (clones from phage panning on NRS), anti-HA-HRP detection

binding result: binds
B1: SEQ ID NO 42 (scFv)
scFv: EVQLLESGGGLVQPGGSLRLSCAASGFTFSNYSMSWVRQAPGKGLEWVSVISPGSGSKYYADSVKGRFTISRDNSKNTLYLQMNSLRAEDTAVYYCARTATIFDYWGQGTLVTVSSGGGGSGGGGSGGGGSQSVLTQPPSASGTPGQRVTISCTGSSSNIGSNYVSWYQQLPGTAPKLLIYADSQRPSGVPDRFSGSKSGTSASLAISGLRSEDEADYYCGTWDDSLSAYVFGGGTKLTVL
notes: It is probably the same molecule as one of Biocon-N1 to N5

binding result: binds
B2: SEQ ID NO 70 (scFv)
scFv: EVQLLESGGGLVQTGGSLRLSCAASGFTFSDYAMSWVRQAPGKGLEWVSGISYSGGSTYYADSVKGRFTISRDNSKNTLYLQMNSLRAEDTAVYYCAKNSRHFDYWGQGTLVTVSSGGGGSGGGGSGGGGSQSVLTQPPSASGTPGQRVTISCSGSSSNIGSNDVTWYQQLPGTAPKLLIYSNSHRPSGVPDRFSGSKSGTSASLAISGLRSEDEADYYCGAWDDSLNGYVFGGGTKLTVL
notes: as for B1
